One experiment deals with L-biotin-labeled albumin. Nature of the experiment: SPR (Biacore T200) binding evaluation to L-biotin-labeled albumin. Also on record: species or system bovine. Conditions: analyte flowed at 30 μL/min up to 100 nM, single cycle method, albumin immobilized on sensor chip. The procedure:
(§1) A binding ability of D-streptavidin obtained in Example 1 to D-biotin as a natural form and L-biotin as an optical isomer of D-biotin was evaluated by an intermolecular interaction analyzer (Biacore T200) using SPR as a measurement principle.
Similarly, L-biotin-labeled albumin was prepared using L-biotin-AC5-OSu [see (Amidation of L-biotin) described in Example 3 above].
Bovine serum albumin was immobilized on flow cells 1 and 3 of a CMS sensor chip (manufactured by Cytiva) of a Biacore T200 system at a target level of 400 RU by an amine coupling method with an amine coupling kit (Cytiva). Further, L-biotin-labeled albumin and D-biotin-labeled albumin were immobilized at a target level of 400 RU to flow cells 2 and 4, respectively, similarly by an amine coupling method. Blocking was performed in each flow cell with 1 M ethanolamine solution, pH 8.5 (manufactured by Cytiva). […]
(§2) Using HBS-EP+(manufactured by Cytiva) as a running buffer, the prepared D-tamavidin (trademark) 2 was flowed into each flow cell at a flow rate of 30 μL/min in the range of 100 pM to 100 nM by a single cycle method, and binding and dissociation to D-biotin or L-biotin was evaluated by Biacore T200 Evaluation Software (manufactured by Cytiva).

Another experiment has as its system D-biotin-labeled albumin. Description: SPR (Biacore T200) binding evaluation to D-biotin-labeled albumin. Also on record: species or system bovine. The settings on record: analyte flowed at 30 μL/min up to 100 nM, single cycle method, albumin immobilized on sensor chip. The procedure:
as §1
An N,N-dimethylformamide solution (16.3 μL) containing 10 mg/mL D-biotin-AC5-OSu (manufactured by DOJINDO LABORATORIES) was added to 2.8 mL of 50 mg/mL bovine serum albumin/0.1 M phosphate buffer solution (pH 7.5), and the mixture was stirred, then allowed to stand at 35° C. for 1 hour. Thereafter, desalting was performed by PD-10 (17085101, manufactured by Cytiva) equilibrated with a 0.1 M phosphate buffer (pH 7.5), and D-biotin-labeled albumin was recovered. The number of labeled D-biotin per molecule of albumin by HABA method was 0.4.
Bovine serum albumin was immobilized on flow cells 1 and 3 of a CMS sensor chip (manufactured by Cytiva) of a Biacore T200 system at a target level of 400 RU by an amine coupling method with an amine coupling kit (Cytiva). […]
as §2
In general terms: In SPR one partner is held on a chip, and binding of the other changes the refractive index at the surface.

Entries after “also recorded” stand apart in the source; their conditions may differ.

B1: D-tamavidin (trademark) 2: avidin-like protein derived from Pleurotus cornucopiae consisting of D amino acids, 2nd to 141st amino acid sequence of SEQ ID NO: 4 (peptide, listed as Pleurotus cornucopiae)
chain: SDVQSSLTGTWYNELNSKMELTANKDGTLTGKYLSKVGDVYVPYPLSGRYNLQPPAGQGVALGWAVSWENSKIHSATTWSGQFFSESSPVILTQWLLSSSTARGDVWESTLVGNDSFTKTAPTEQQIAHAQLHCRAPRLK
modifications: D-amino acids
Regarding B1, the “binding to L-biotin-labeled albumin (SPR sensorgram)” value in the experiment with L-biotin-labeled albumin is reported as “increase in the SPR signal was observed; also recorded: binds”. In the experiment on D-biotin-labeled albumin, the “binding to D-biotin-labeled albumin (SPR sensorgram)” value is “No increase in SPR signal; also recorded: does not substantially bind”.

Source of the values: patent US20230288411A1, “POLYPEPTIDE, MULTIMER, SOLID PHASE, MEASUREMENT METHOD FOR TEST SUBSTANCE, AND REAGENT KIT” (SYSMEX CORPORATION, priority 2020, published 2023).
